Reference: patent publication US9155795B2, “CXCR4 receptor compounds” (Anchor Therapeutics, Inc., priority 2010, dated 2015)
Where a SMILES comes first, the peptide text is derived from it. Where no end group is shown, it is not given here. [ ]: non-standard residue; d: D form. The star is where a group is joined. Hexadecanesulfonyl = CCCCCCCCCCCCCCCCS(=O)(=O)*

Columns and labels:
[1] = target: T1, CXCR4 (Homo sapiens, UniProt P61073); test: CXCR4 chemotaxis assay (Transwell, CCRF-CEM cells); type: cell-based; details: DMSO vehicle
T1 construct: CCRF-CEM cells, a human T-cell ALL line that endogenously expresses CXCR4; endogenous in cells; host or cells: CCRF-CEM (human T-cell acute lymphoblastic leukemia line)
T1 sequence (P61073 whole entry): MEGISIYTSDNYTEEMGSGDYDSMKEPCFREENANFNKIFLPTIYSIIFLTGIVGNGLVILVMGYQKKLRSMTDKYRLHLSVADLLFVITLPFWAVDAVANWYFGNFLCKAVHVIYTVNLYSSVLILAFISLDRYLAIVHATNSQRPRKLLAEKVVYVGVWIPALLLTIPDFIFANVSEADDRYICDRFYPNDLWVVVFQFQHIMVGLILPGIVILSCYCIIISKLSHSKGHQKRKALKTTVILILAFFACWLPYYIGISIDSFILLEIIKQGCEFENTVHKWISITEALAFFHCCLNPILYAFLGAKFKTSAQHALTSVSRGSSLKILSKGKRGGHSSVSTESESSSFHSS
Text: Chemotaxis assays are utilized to determine the effect of compound on the directed migration of cells in response to chemokine. In general, cells that express a receptor of interest are placed in the upper chamber of a Transwell chemotaxis plate (Corning) and allowed to migrate through a polycarbonate membrane to a lower chamber containing the appropriate receptor-specific ligand. To test for antagonist or potentiating activity, cells are mixed with the desired concentration of compound prior to addition to the upper chamber. Conversely, agonist activity is determined by adding compound in the bottom chamber only without endogenous chemokine. The effect of compound is quantified by several parameters, including the extent of maximum response, the shift of agonist dose-response curves, and the area under the curve.
To measure the CXCR4 test compound elicited CXCR4-dependent migration of cells, the appropriate concentration of control agonist CXCL12 or test compound is diluted in phenol red-free RMPI-1640/20 mM HEPES/0.5% BSA buffer and placed in the bottom chamber of a transwell apparatus. CCRF-CEM cells, a human T-cell ALL line that endogenously expresses CXCR4, are washed twice in buffer and resuspended at 133,000 cells/ml. A 75 μl sample of the cell suspension is mixed with the test compound of interest and placed in the upper chamber of a 5-micron transwell apparatus.
To measure the effect of test compound on CXCL12 elicited CXCR4-dependent migration of cells, the appropriate concentration of CXCL12 is diluted in phenol red-free RMPI-1640/20 mM HEPES/0.5% BSA buffer and placed in the bottom chamber of a transwell apparatus. CCRF-CEM cells, a human T-cell ALL line that endogenously expresses CXCR4, are washed twice in buffer and resuspended at 133,000 cells/ml. A 75 μl sample of this suspension is mixed with the test compound of interest and placed in the upper chamber of a 5-micron transwell apparatus.
To initiate cell migration, the assembled transwell plate is placed in a 37° C., […] incubator for a specified time interval, typically between 30 and 120 minutes. After incubation, the unit is disassembled and the lower chamber placed at −80° C. overnight to facilitate lysis of cells. To quantify migrated cells, plates are thawed at 37° C. in a humidified chamber, and then a sample volume is removed from each well and mixed with an equal volume of CyQuant (Invitrogen) working solution in opaque plates. The fluorescence intensity of each well represents the DNA content and is directly proportional to cell number. Each sample is typically run in duplicate or triplicate and each plate include two separate negative controls. The plate background control, which includes no cells in the upper chamber, is subtracted from all values. […]

[2] = target: T1, CXCR4; test: Calcium flux assay, agonist mode, FLIPR (CCRF-CEM cells); type: cell-based; details: percent of maximum response compared with SDF-1α, read-out: % Intrinsic Activity
Method: The calcium flux assay was used to assess the test compounds' ability to activate the CXCR4 receptor in CCRF-CEM cells (human T lymphoblasts from acute lymphoblastic leukemia). […] After dye loading by incubating with Calcium-4 dye at 37° C. for 1 hour, cell plates were read at 37° C. using the Fluorescent Imaging Plate Reader (FLIPR). Receptor activation was assessed by measuring changes in fluorescent intensity after the addition of the test compounds or the reference agonist SDF-1α on the FLIPR.

Row | Emax [2] | Compound | AUC (% of Vehicle) [1] | Max (% of Vehicle) [1]
1 | – | 43: i3 loop peptide SKLSHSKGHQKRKALKTTVIL (SEQ ID NO: 39), lipid Pal (also: lipid Pal attached, position not given here) [Compound 43] | 226.59 % of Vehicle | 202.16 % of Vehicle
2 | – | 44: i4 loop peptide GAKFKTSAQHALTSVR (SEQ ID NO: 40), lipid Pal (also: lipid Pal attached, position not given here) [Compound 44] | 56.75 % of Vehicle | 56.7 % of Vehicle
3 | 107% | CCCCCCCCCCCCCCCCS(=O)(=O)NCC(=O)NCC(=O)N[C@@H](Cc1ccc(O)cc1)C(=O)N[C@@H](CCC(N)=O)C(=O)N[C@@H](CCCCN)C(=O)N[C@@H](CCCCN)C(=O)N[C@@H](CC(C)C)C(=O)N[C@@H](CCCNC(=N)N)C(=O)N1CCC[C@@H]1C(=O)N[C@@H](Cc1c[nH]cn1)C(=O)N[C@H](C(=O)N[C@@H](CC(=O)O)C(=O)N[C@@H](CCCCN)C(=O)N[C@@H](Cc1ccc(O)cc1)C(=O)N[C@@H](CCCNC(=N)N)C(=O)N[C@@H](CC(C)C)C(N)=O)[C@@H](C)O [Compound 46, CH3(CH2)15SO2— GGYQKKLRpHTDKYRL-amide] (Hexadecanesulfonyl-GGYQKKLR[dP]HTDKYRL-NH2) | – | –
